From the RNAGym collection of RNA variant scans (doi:10.1073/pnas.2313332121)
Fewer inactive variants are shown than the library holds.

B1: TPR 5TU (parent)
chain: GGAUCUUCUCGAUCUAACAAAAAAGACAAAUCUGCCACAAAGCUUGAGAGCAUCUUCGGAUGCAGAGGCGGCAGCCUUCGGUGGCGCGAUAGCGCCAACGUUCUCAACUAUGACACGCAAAACGCGUGCUCCGUUGAAUGGAGUUUAUCAUG

Variants of: B1
Assay: polymerase ribozyme fitness, log enrichment relative to wild type (log ratio); higher = more active; in vitro selection for triplet polymerase activity
Method in brief: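 The heterodimeric triplet polymerase ribozyme's subunits were each mutagenized into PCR-built libraries and transcribed. Every library was selected once, in triplicate, by annealing with a biotinylated primer, the partner subunit and triplets, incubating frozen at −7 °C, gel-excising extended constructs, capturing on streptavidin beads and running RT-PCR. Input and output libraries were Illumina-sequenced, with genotypes kept only at ≥10 input reads and ≥1 read per output. Fitness, from inverse-variance-weighted replicate averages, is the base-2 logarithm of genotype enrichment over wild-type enrichment.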

Variant | polymerase ribozyme fitness (log ratio)
C79U G141A | -2.05
C5U A17C C54A C85A C93U C105G A113G G141A | ≤ -4.2
G80A A113C U145A | -3.89
G86U A97U C132A | ≤ -4.2
A3C C5G G92U U134C U135A | -1.39
C57U G86U C96A U109A U146A | -2.45
A119U G124U U146A | -0.483
A12G U44G A60G G65C C114G | ≤ -4.2
G50A C118G | -2.21
A20U A40C G59A U77C U101C C108A U146G | ≤ -4.2
U56A G58U G94C U145G | 0.0333
G42A G62A G65U G136U | ≤ -4.2
C93U U109G U144G | -1.39
G65A G126A | -0.138
G83A A89G C116U | -1.69
U61G C105U A115G A147C G152U | ≤ -4.2
A29U A47C C54A G94A U102G A110G C132A | ≤ -4.2
C51G G92C | -2.71
C27U U45A G81A G124U | ≤ -4.2
A16G G46U G84A C105U G133C A138G A142G | ≤ -4.2
C54U C57G G94C U134A G136C | ≤ -4.2
A26C C123G G141U | -2.47
A16U A26G U53C G84C C87A G128C G141A | ≤ -4.2
A40C A52G | 0.882

Variant | polymerase ribozyme fitness (log ratio)
A3C C5A A20U C57A G62C U78G | ≤ -4.2
A22G C85A G143C | -2.92
A21U U56A | -0.173
C35U C54U G65U G83C C95U C103G A106G | ≤ -4.2
C38U C63A C103A | -1.77
G48A C85U | -2.1
G58A G94A A106C | -0.37
C38G U53A C85U U135A | -1.98
A39U U55G G67C G86U A115C | ≤ -4.2
C54A U56A C118U | -2.14
U55C C95A C96G G117C | -2.16
C57G U148A | -3.25
U44A C72A C87U C99G U135A | ≤ -4.2
A22U U55G | -0.206
A49G C93A | -3.6
A12G U33A A64C G92A G124U | -4
U53C U55C C105U | -1.88
G81U G84C | -3.22
C18U A19C A30C A47U U56A G67C G70A C85G C87A C96U A142C | ≤ -4.2
G50U A91G C103G | ≤ -4.2
A22G G84U | -2.74
G50C G126A | -2.28
C10U C96G | -3.82
G92U C149U | -1.29

Variant | polymerase ribozyme fitness (log ratio)
A64G C103G U148G | ≤ -4.2
A47C C87A C99U G136U G141C | ≤ -4.2
A40C U61A | -1.94
A12U A120C | -0.776
A64U G84U | ≤ -4.2
A19U U55G G88U U104G | ≤ -4.2
A19G A20U U55A C87A C131U U148A | ≤ -4.2
A41G G58U G59C | -0.488
A19C G62A C85A A137U U151A | ≤ -4.2
G48C C57A C99U U130C | -2.37
G48A C54U G86C A106C | ≤ -4.2
A37U C96U | -1.52
U53C C57U A60G C69A A97U G141A U146C | -0.526
U55C U144C | 0.187
A30G A41U U55G C93U | ≤ -4.2
A39U A60U G84U | -3.96
U4A G136A | 0.134
C14G C36U C85U G136U A138G | ≤ -4.2
U45G A49C G62C G94C C118G | ≤ -4.2
A12C A97G U102G | -3.89
A37G G141U U145G | -3.34
C103U U134G G141C | -4.14
G59U G65C U109G | ≤ -4.2
A39U U77A U78G C85G G86A | ≤ -4.2

Variant | polymerase ribozyme fitness (log ratio)
U82G C85A A89G G133A A142C | ≤ -4.2
A40C G42C G80U | ≤ -4.2
C38U U45G G68A G81U C87G A98G | ≤ -4.2
C96U U102G G141C | -4.12
U56C C103G C129U | -4.1
C5G U6G U61C C85U | -3.57
C76U A119C | -0.584
A24U C27A G42C C75A U82G C96U C108A A138C | ≤ -4.2
A41C G67C C85A C131U A137G | ≤ -4.2
U31A G50A C57U C85U A119C | -1.76
C96U G124C | -0.743
U13G G42A A49G U56A C57A G80A | ≤ -4.2
C87A C93G | ≤ -4.2
C69G G74U A89U A98U | -2.01
C51U G58C A73G G81A C116U | -0.931
G81A C95A C103A | -2.93
A66G G92C | -3.77
U55A A98U U111C | -4.16
G59A C96G | -1.1
C14G G100U | ≤ -4.2
C32A A47C A122G A147C | ≤ -4.2
C54A G84C | -2.93
A3C U31G C57G | -1.39
G25U G92C A115G | -3.33

Variant | polymerase ribozyme fitness (log ratio)
A17U A39C G80A G86U G117U U144C U148G | ≤ -4.2
G80A A91G A122U | -2.08
A20U G50U C76A G92C A110G C118G A137U | ≤ -4.2
A19U A23U A26U C54U A60G A120U U151G | ≤ -4.2
G25A A39G G68C C95U | ≤ -4.2
A21U A41C G65A C85A | ≤ -4.2
A3U U7G A39C U56A G83C C132U U144C U145C C149A | ≤ -4.2
U53C C116G | 0.204
A52U U148C | ≤ -4.2
U31C A49U G74A G84U G117C G133U A142C | ≤ -4.2
U56A U82G U139A | -4.02
U56A C95U | 0.199
U31G U33G U61G C72U C87G A106C U135G | ≤ -4.2
A22U A23U G70U C85U A89C A120G U144A | ≤ -4.2
U45A G86A | -3.54
U56C A120C C149U | -1.17
A49C G83C C95G U101A | ≤ -4.2
A12U A47U C95U A115G | -2.31
C36U C85A C93A C114U | ≤ -4.2
A28G C54G C76U G94A | -4
U6A A20G U45A | -3.51
C54G C96G G128U | ≤ -4.2
C14U A19U G84A | -0.945
U135G A142C | -2.54

Variant | polymerase ribozyme fitness (log ratio)
A24C C35U C87G A98U C103U C125G | ≤ -4.2
A22C C27U U127C | -3.95
U55A G62C G68U C96U A121U | ≤ -4.2
A47C G81C C87G C96U | ≤ -4.2
G11C U31A A40U | -0.204
C63A C85G U134A | -4.18
A26C C87A | ≤ -4.2
G94A A97G G124A | -1.65
A30C C105U | ≤ -4.2
A41G G86C | -3.28
C69A U90C | ≤ -4.2
A24G C43U A73G G83U U101G C105G U127C G140C | ≤ -4.2
C75A G80C C96G C99A G117A | ≤ -4.2
A23U A40U C51U U78G | ≤ -4.2
A49C G50C C54G G70A C87G A89G C103U | ≤ -4.2
U45A C118A | -3.79
A37C U61A | -1.77
A21G G94A A97G A137G | -2.22
A21C C36U C57A C95U A97G A98U C125U | -3.21
C10G G65U G88C C105U C114A | ≤ -4.2
G84A C103G | -2.32
G92A C96A | -3.11
G42C U53G G71A G92C C105G A137G | ≤ -4.2
A40G G84U A89U U104G | ≤ -4.2

Variant | polymerase ribozyme fitness (log ratio)
C36U C57G C69A U134C | -2.32
C85U U90C C103A | ≤ -4.2
U56A G88C U145G | -4.05
U61A C75U | -1.92
C8G G34A G124A A137C | ≤ -4.2
C54U C76A C96A U127C G136A | -3.34
U6C C10A C14G A49C C57U A91C C114U | ≤ -4.2
C27G G58U C76A G86A U90C A106U C125U G136C | ≤ -4.2
C18G G50A A91G G94C C132G | ≤ -4.2
C51U G94A C96U G126C | -1.72
C54A G83C C85A | ≤ -4.2
G67A G83A | ≤ -4.2
G86A G141C | -1.01
U6G A73G | -0.521
A22C C51U U56A G92U G100C U101G C103G G143U G152A | ≤ -4.2
G46U U55A G84U G126C | -1.83
A41C G50A C96U | -1.93
U56A G58U A98U G100C | ≤ -4.2
C38U C63U | 0.178
C35G C95G | -4.19
A89C C131A | -3.23
U7G U55A | -3.28
U9A U31G C36A C93G C103G G140C | ≤ -4.2
